Measurements as given in patent US20150368327A1 (YOKOHAMA CITY UNIVERSITY, published 2015).

Tests used:
[1] = molecular target: T1, human Sema 3A protein (human, UniProt Q14563 21-771, limits assumed); assay: competitive ELISA on plate-coated human Sema 3A; competitor biotin-labelled avian-mouse chimeric antibody (clone No. 4-2) at 60 ng/mL
T1 construct: also called Human Sema 3A antigen; human-derived Sema 3A protein
T1 sequence (looked up): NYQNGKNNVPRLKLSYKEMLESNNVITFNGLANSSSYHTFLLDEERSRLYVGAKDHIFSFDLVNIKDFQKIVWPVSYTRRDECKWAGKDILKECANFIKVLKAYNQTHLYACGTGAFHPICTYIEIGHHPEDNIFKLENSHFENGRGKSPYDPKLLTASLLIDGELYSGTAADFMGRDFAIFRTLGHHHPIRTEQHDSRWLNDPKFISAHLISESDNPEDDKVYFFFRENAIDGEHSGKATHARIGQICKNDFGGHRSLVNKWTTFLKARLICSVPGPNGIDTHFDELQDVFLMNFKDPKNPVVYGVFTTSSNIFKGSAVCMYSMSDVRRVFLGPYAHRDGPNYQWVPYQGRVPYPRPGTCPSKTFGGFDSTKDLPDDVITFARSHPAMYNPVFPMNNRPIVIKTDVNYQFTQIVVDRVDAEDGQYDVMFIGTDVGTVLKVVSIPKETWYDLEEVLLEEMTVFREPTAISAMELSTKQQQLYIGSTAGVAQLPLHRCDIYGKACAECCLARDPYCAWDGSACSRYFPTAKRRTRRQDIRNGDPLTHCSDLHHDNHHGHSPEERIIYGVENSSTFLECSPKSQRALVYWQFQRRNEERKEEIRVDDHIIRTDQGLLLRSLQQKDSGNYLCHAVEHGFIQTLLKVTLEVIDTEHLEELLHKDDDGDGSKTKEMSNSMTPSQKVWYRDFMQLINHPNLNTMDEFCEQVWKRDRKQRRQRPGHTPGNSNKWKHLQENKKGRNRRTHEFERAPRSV
Protocol: The obtained clone No. 4-2-derived avian-mouse chimeric antibody in Example 1, the obtained humanized antibodies in Example 2 (Humanized-1 and Humanized-2) and avian-human chimeric antibody were subjected to competitive ELISA to evaluate affinity to the antigen. CL18M (+) avian-mouse chimeric antibody, which served as a negative control, was also measured for affinity to the antigen. Particular measurement conditions were as follows.
Firstly, 2.5 μg/mL of antigen (mouse and human Sema 3A protein) was dispensed into a 384 Well MaxiSorp Plate (Nunc) and reacted overnight at 4° C. in order to coat the plate with the antigen. The next day, the plate was washed three times with 50 μL/well of washing solution (PBS containing 0.05% Tween 20), to which was added 25 μL/well of blocking solution (PBS containing 1% bovine serum albumin) and the mixture was reacted for 30 minutes. Each of humanized antibodies (Humanized-1 and Humanized-2), avian-human chimeric antibody and avian-mouse chimeric antibody was subjected to serial doubling dilution, to which was mixed anti-Sema 3A avian-mouse chimeric antibody labeled with biotin to the final concentration of 60 ng/mL, and the mixture was reacted with the antigen solid phase plate which was washed three times with 50 μL/well of washing solution for one hour. The plate was washed five times with 50 μL/well of washing solution, to which was added 20 μL/well of diluent in which streptavidin labeled with horseradish peroxidase (HRP) (Thermo Fisher Scientific K.K.) was diluted 10000 times with PBS buffer and the mixture was reacted for 30 minutes. The plate was washed five times with 50 μL/well of washing solution, to which was added 20 μL/well of TMB+(Dako) and the mixture was chromogenically reacted for 20 minutes. Subsequently, to the each well was added 20 μL, of 1M sulfuric acid to quench the reaction. The absorbance was measured at 450 nm using Infinite M1000 (Tecan Trading AG).

[2] = molecular target: T2, mouse Sema 3A protein (mouse, UniProt O08665 21-772, limits assumed); assay: antigen solid phase ELISA: coated mouse Sema 3A (2.5 µg/mL), anti-mouse IgG2A-HRP, OD450
T2 construct: Produced from mouse Sema 3A protein expressing cells; also called Mouse Sema 3A antigen
T2 sequence (looked up): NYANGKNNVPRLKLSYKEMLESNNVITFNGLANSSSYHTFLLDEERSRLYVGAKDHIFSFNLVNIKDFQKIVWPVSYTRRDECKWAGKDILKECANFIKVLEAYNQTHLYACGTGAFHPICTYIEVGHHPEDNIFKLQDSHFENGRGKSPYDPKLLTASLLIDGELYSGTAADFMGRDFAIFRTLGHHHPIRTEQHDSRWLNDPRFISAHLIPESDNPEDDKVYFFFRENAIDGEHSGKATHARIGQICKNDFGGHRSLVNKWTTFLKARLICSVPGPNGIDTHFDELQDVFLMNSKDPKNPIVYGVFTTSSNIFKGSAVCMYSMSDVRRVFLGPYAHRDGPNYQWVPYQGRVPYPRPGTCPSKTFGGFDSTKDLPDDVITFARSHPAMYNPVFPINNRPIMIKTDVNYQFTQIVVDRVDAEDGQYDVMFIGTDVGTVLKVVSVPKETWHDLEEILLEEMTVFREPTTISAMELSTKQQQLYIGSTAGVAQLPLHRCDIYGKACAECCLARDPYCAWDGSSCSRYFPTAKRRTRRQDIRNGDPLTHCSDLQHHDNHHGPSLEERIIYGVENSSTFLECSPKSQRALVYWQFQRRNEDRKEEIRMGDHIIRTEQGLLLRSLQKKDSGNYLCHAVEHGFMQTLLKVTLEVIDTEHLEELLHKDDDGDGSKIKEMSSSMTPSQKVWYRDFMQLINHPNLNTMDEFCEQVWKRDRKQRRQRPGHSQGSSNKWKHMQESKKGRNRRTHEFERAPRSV
Protocol: The antigen specificity of the purified antibody was measured by ELISA with PBS buffer. 2.5 μg/mL of antigen was dispensed to a 96 well Maxi Sorp Plate (Nunc) and reacted overnight at 4° C. to coat the plate with an antigen (mouse Sema 3A protein). Ovalbumin, rabbit IgG and skim milk were immobilized in the plate as negative controls in similar manner in order to examine specificity of antibodies. The next day, the plate was washed three times with 200 μL/well of washing solution (PBS containing 0.05% Tween 20), to which was added 200 μL/well of blocking solution (PBS containing 0.5% skim milk) and the mixture was reacted for 30 minutes. The plate was washed three times with 200 μL/well of washing solution, to which was added 100 μL of culture supernatant containing antibody and the mixture was reacted for one hour. The plate was washed five times with 200 μL/well of washing solution, to which was added 100 μL/well of diluent in which anti-mouse IgG2A goat antibody labeled with horseradish peroxidase (HRP) (Bethyl Laboratories, Inc.) was diluted 2000 times with PBS buffer and the mixture was reacted for one hour. […] The absorbance was measured at 450 nm using μQuantBiomolecular Spectrometer (Bio Tek Instruments, Inc.) Results are shown in FIG. 2.

IC50 [1]: 0.074 µg/mL
EC50 (read off the curve) [2]: ~0.01 ng/µL
B1: Anti-Sema 3A avian-mouse chimeric antibody (clone No. 4-2-derived) (antibody, mouse IgG2a)
heavy: AVTLDESGGGLQTPGGALSLVCKASGFTFSSYPMGWVRQAPGKGLEWVAGIDDDGDSDTRYAPAVKGRATISRDNGQSTVRLQLNNLRAEDTGTYYCAKHTGIGANSAGSIDAWGHGTEVIVSSAKTTAPSVYPLAPVCGDTTGSSVTLGCLVKGYFPEPVTLTWNSGSLSSGVHTFPAVLQSDLYTLSSSVTVTSSTWPSQSITCNVAHPASSTKVDKKIEPRGPTIKPCPPCKCPAPNLLGGPSVFIFPPKIKDVLMISLSPIVTCVVVDVSEDDPDVQISWFVNNVEVHTAQTQTHREDYNSTLRVVSALPIQHQDWMSGKEFKCKVNNKDLPAPIERTISKPKGSVRAPQVYVLPPPEEEMTKKQVTLTCMVTDFMPEDIYVEWTNNGKTELNYKNTEPVLDSDGSYFMYSKLRVEKKNWVERNSYSCSVVHEGLHNHHTTKSFSRTPGK
light: ALTQPASVSANLGGTVKITCSGGGSYTGSYYYGWYQQKSPGSALVTMIYYNNKRPSDIPSRFSGSLSGSTNTLTITGVRADDEAVYFCGSADNSGDAFGAGTTLTVLGQPKSSPSVTLFPPSSEELETNKATLVCTITDFYPGVVTVDWKVDGTPVTQGMETTQPSKQSNNKYMASSYLTLTARAWERHSSYSCQVTHEGHTVEKSLSRADCS
notes: Avian variable regions of clone No. 4-2 with mouse IgG2a heavy and mouse lambda light constant regions; also called anti-Sema 3A avian-mouse chimeric antibody (IgG)
